Data on one substance can be found in publication PMC7672607.

Common to all, as to test: flow cytometry on cells; K562/HLA-F*01:0x cells stripped of bound peptides with citrate phosphate buffer, with or without 200 µM HBB peptide (4 h, 37 °C, serum-free medium); Fc-block 20 min 4 °C; KIR3DS1-Fc 25 µg/mL, 40 min, 4 °C; detected with goat anti-human IgG Fc PE; n = 3
Assay [1] addresses HLA-F*01:01 on K562 cells loaded with the HBB peptide … (human | human (endogenous in K562)).
For assay [2], the target named is HLA-F*01:03 on K562 cells loaded with the HBB peptide … (human | human (endogenous in K562)).
The target in assay [3] is HLA-F*01:04 on K562 cells loaded with the HBB peptide … (human | human (endogenous in K562)).

On to “recombinant KIR3DS1-Fc chimeric protein (from UniProt Q14943 22-340) (Fc fusion)”, for which the percent decrease of KIR3DS1 binding against the same cells without HBB peptide in assay [1] was 36.2%; in assay [2], 27.9%; in assay [3], 16.5%.
